Patent publication US20210300993A1 (AVALON GLOBOCARE, published 2021)

Assays:
IFNγ [1] = target: T1, IFNγ (UniProt P01579 24-166, limits assumed); test: MicroScale Thermophoresis, 5 nM NT647-labeled receptor fusion against a gradient of ligand, 25 C
T1 sequence (looked up): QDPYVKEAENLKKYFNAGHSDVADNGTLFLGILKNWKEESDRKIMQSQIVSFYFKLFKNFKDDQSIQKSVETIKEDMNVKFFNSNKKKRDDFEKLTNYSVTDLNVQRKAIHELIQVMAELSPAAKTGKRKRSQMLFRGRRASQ
Experimental: (§1) The affinity of QTY modified cytokine receptor fused with Fc of IgG for their respective native ligands was measured using MicroScale Thermophoresis (MST). Changes in thermophoretic movement for labeled proteins upon ligand-binding were recorded and plotted as a function of ligand concentration.
(§2) MicroScale Thermophoresis (MST) is an optical method detecting changes in thermophoretic movement and TRIC of the protein-attached fluorophore upon ligand binding. Active labelled proteins contribute to the thermophoresis signal upon ligand binding. […] Herein ligand binding experiments were carried out with 5 nM NT647-labeled protein in 1× PBS, 10 mM DTT buffer with different concentration of arginine, against a gradient of respective ligands on a Monolith NT.115 pico instrument at 25° C. Synthesized receptors were labeled with Monolith NT™ 2nd generation protein labeling kit RED-NHS (NanoTemper Technologies) so as to obtain unique fluorescent signals. MST time traces were recorded and analyzed to obtain the highest possible signal-to-noise levels and amplitudes, >5 Fnorm units. The recorded fluorescence was plotted against the concentration of ligand, and curve fitting was performed using the Kd fit formula derived from the law of mass action. For clarity, binding graphs of each independent experiment were normalized to the fraction bound (0=unbound, 1=bound). MST experiments were performed in the Center for Macromolecular Interactions at Harvard Medical School.

IFNγ [2] = target: T1, IFNγ; test: MicroScale Thermophoresis (MST), fluorescently labelled receptor fusion titrated with IFNγ
Source text: (§3) FIG. 3A-3D. MST ligand binding measurements. The receptors were labeled with fluorescent dye. The ligands were purchased commercially from and dissolved in di water. (FIG. 3A) IL4Rα^QTY-Fc with IL4; (FIG. 3B) IL10Rα^QTY-Fc with IL10; (FIG. 3C) IFNγR1^QTY-Fc with IFNγ; (FIG. 3D) […].
as §2, with “MST experiments were performed in the Center for Macromolecular Interactions at Harvard Medical School.” left out

IL29 [3] = target: T2, IL29 (UniProt Q8IU54 20-200, limits assumed); test: MicroScale Thermophoresis (MST), fluorescently labelled receptor fusion titrated with IL29
Source text: as §3
as §2, with “MST experiments were performed in the Center for Macromolecular Interactions at Harvard Medical School.” left out

IL29 [4] = target: T2, IL29; test: MicroScale Thermophoresis, 5 nM NT647-labeled receptor fusion against a gradient of ligand, 25 C
Experimental: as §1, §2

IL10 [5] = target: T3, IL10 (UniProt P22301 19-178); test: as above
Experimental: as §1, §2

IL10 [6] = target: T3, IL10; test: MicroScale Thermophoresis (MST), fluorescently labelled receptor fusion titrated with IL10
Source text: as §3
as §2, with “MST experiments were performed in the Center for Macromolecular Interactions at Harvard Medical School.” left out

T3 sequence (P22301 19-178 limits assumed): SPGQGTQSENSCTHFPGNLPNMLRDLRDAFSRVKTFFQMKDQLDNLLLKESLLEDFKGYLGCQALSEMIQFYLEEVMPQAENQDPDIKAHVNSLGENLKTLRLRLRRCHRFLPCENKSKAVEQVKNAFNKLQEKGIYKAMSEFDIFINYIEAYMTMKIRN
T2 sequence (Q8IU54 20-200 limits assumed): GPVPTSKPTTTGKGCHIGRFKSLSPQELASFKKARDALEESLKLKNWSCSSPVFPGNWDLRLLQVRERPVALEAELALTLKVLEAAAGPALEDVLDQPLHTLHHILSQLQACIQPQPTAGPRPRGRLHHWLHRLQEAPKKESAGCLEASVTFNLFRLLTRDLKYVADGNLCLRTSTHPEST

B1: IFNγR1^QTY-Fc (HUMAN Interferon gamma receptor 1-Fc fusion) (Fc fusion)
chain: EMGTADLGPSSVPTPTNVTIESYNMNPIVYWEYQIMPQVPVFTVEVKNYGVKNSEWIDACINISHHYCNISDHVGDPSNSLWVRVKARVGQKESAYAKSEEFAVCRDGKIGPPKLDIRKEEKQIMIDIFHPSVFVNGDEQEVDYDPETTCYIRVYNVYVRMNGSEIQYKILTQKEDDCDEIQCQLAIPVSSLNSQYCVSAEGVLHVWGVTTEKSKEVCITIFNSSIKGSQWTPTTAAQQQYQTQSQTYTCFYIKKTETSQVAPAHHHHHHHHHHGSKLVDPRGPTIKPCPPCKCPAPNLLGGPSVFIFPPKIKDVLMISLSPIVTCVVVDVSEDDPDVQISWFVNNVEVHTAQTQTHREDYNSTLRVVSALPIQHQDWMSGKEFKCKVNNKDLPAPIERTISKPKGSVRAPQVYVLPPPEEEMTKKQVTLTCMVTDFMPEDIYVEWTNNGKTELNYKNTEPVLDSDGSYFMYSKLRVEKKNWVERNSYSCSVVHEGLHNHHTTKSFSRTPGK
modifications: labeled with NT647 RED-NHS fluorescent dye for MST
For B1, the Kd (IFNγ [1]) was 6.2 nM and the “EC50 (read off the curve)” value (IFNγ [2]) was about 9 nM.

B2: IFNλR1^QTY-Fc (HUMAN Interferon lambda receptor 1-Fc fusion) (Fc fusion)
chain: RPRLAPPQNVTLLSQNFSVYLTWLPGLGNPQDVTYFVAYQSSPTRRRWREVEECAGTKELLCSMMCLKKQDLYNKFKGRVRTVSPSSKSPWVESEYLDYLFEVEPAPPVLVLTQTEEILSANATYQLPPCMPPLDLKYEVAFWKEGAGNKTLFPVTPHGQPVQITLQPAASEHHCLSARTIYTFSVPKYSKFSKPTCFLLEVPEANWAYQTQPSQQTQQQTTAAGGTTWKTLMGNTETSQVAPAHHHHHHHHHHGSKLVDPRGPTIKPCPPCKCPAPNLLGGPSVFIFPPKIKDVLMISLSPIVTCVVVDVSEDDPDVQISWFVNNVEVHTAQTQTHREDYNSTLRVVSALPIQHQDWMSGKEFKCKVNNKDLPAPIERTISKPKGSVRAPQVYVLPPPEEEMTKKQVTLTCMVTDFMPEDIYVEWTNNGKTELNYKNTEPVLDSDGSYFMYSKLRVEKKNWVERNSYSCSVVHEGLHNHHTTKSFSRTPGK
modifications: labeled with NT647 RED-NHS fluorescent dye for MST
In the case of B2, the “EC50 (read off the curve)” value (IL29 [3]) is reported as about 10 nM and the Kd (IL29 [4]) is reported as 11.5 nM.

B3: IL10Rα^QTY-Fc (HUMAN Interleukin-10 receptor subunit alpha-Fc fusion) (Fc fusion)
chain: HGTELPSPPSVWFEAEFFHHILHWTPIPNQSESTCYEVALLRYGIESWNSISNCSQTLSYDLTAVTLDLYHSNGYRARVRAVDGSRHSNWTVTNTRFSVDEVTLTVGSVNLEIHNGFILGKIQLPRPKMAPANDTYESIFSHFREYEIAIRKVPGNFTFTHKKVKHENFSLLTSGEVGEFCVQVKPSVASRSNKGMWSKEECISLTRQYFTVTNTTTYYAYTQQQSGAQAYCQAQQLYVRRRKKTETSQVAPAHHHHHHHHHHGSKLVDPRGPTIKPCPPCKCPAPNLLGGPSVFIFPPKIKDVLMISLSPIVTCVVVDVSEDDPDVQISWFVNNVEVHTAQTQTHREDYNSTLRVVSALPIQHQDWMSGKEFKCKVNNKDLPAPIERTISKPKGSVRAPQVYVLPPPEEEMTKKQVTLTCMVTDFMPEDIYVEWTNNGKTELNYKNTEPVLDSDGSYFMYSKLRVEKKNWVERNSYSCSVVHEGLHNHHTTKSFSRTPGK
modifications: labeled with NT647 RED-NHS fluorescent dye for MST
For B3, the Kd (IL10 [5]) was 1.6 nM and the “EC50 (read off the curve)” value (IL10 [6]) was about 4 nM.
